Target: Mtb ClpB M-domain motif 2 protein (residues 467–518) (Mycobacterium tuberculosis, UniProt P9WPD1 467-518)
Assay: ITC

Mtb ClpB M-domain motif 2 protein (residues 467–518), sequence (P9WPD1 467-518): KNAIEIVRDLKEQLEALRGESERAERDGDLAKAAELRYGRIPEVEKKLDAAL

B1: Mtb DnaK NBD (residues 1–359) (domain or fragment)
chain: MARAVGIDLGTTNSVVSVLEGGDPVVVANSEGSRTTPSIVAFARNGEVLVGQPAKNQAVTNVDRTVRSVKRHMGSDWSIEIDGKKYTAPEISARILMKLKRDAEAYLGEDITDAVITTPAYFNDAQRQATKDAGQIAGLNVLRIVNEPTAAALAYGLDKGEKEQRILVFDLGGGTFDVSLLEIGEGVVEVRATSGDNHLGGDDWDQRVVDWLVDKFKGTSGIDLTKDKMAMQRLREAAEKAKIELSSSQSTSINLPYITVDADKNPLFLDEQLTRAEFQRITQDLLDRTRKPFQSVIADTGISVSEIDHVVLVGGSTRMPAVTDLVKELTGGKEPNKGVNPDEVVAVGAALQAGVLKGE
stoichiometry N: ~1

— publication PMC8209680 (Cell reports, 2021)
